The results in this text go back to article PMC1278935, “Different Catalytic Mechanisms in Mammalian Selenocysteine- and Cysteine-Containing Methionine-R-Sulfoxide Reductases” (PLoS Biology, 2005).

Substrate in series [1]: CN(C)c1ccc(N=Nc2ccc(S(=O)(=O)N[C@@H](CC[S@@+](C)[O-])C(=O)O)cc2)cc1
The series is described as follows: HPLC of dabsyl-Met, Lineweaver-Burk. Particulars: 20 mM DTT, 50 mM sodium phosphate pH 7.5, 50 mM NaCl, 37 °C, from E. coli. The format is biochemical, Homo sapiens. The source says:
HPLC of dabsyl-Met, Lineweaver-Burk on MsrB3

Substrate in series [2]: CN(C)c1ccc(N=Nc2ccc(S(=O)(=O)N[C@@H](CC[S@@+](C)[O-])C(=O)O)cc2)cc1
The series is described as follows: HPLC of dabsyl-Met, Lineweaver-Burk. The format is biochemical, Mus musculus. To be noted: 20 mM DTT, 50 mM sodium phosphate pH 7.5, 50 mM NaCl, 37 °C. The source says:
HPLC of dabsyl-Met, Lineweaver-Burk on MsrB1 (Sec-containing MsrB1; Cys form MsrB1-Cys)

A word on the Km: it is the substrate concentration at which the rate is half of its maximum. Broadly, the kcat is the number of substrate molecules converted per active site and unit of time at saturation.

Numbering of substitutions follows the chain as printed. Names may count otherwise.

B1: MsrB3 (Homo sapiens; H77G) (protein)
chain: SGSCRDKKNCKVVFSQQELRKRLTPLQYHVTQEKGTESAFEGEYTGHKDPGIYKCVVCGTPLFKSETKFDSGSGWPSFHDVINSEAITFTDDFSYGMHRVETSCSQCGAHLGHIFDDGPRPTGKRYCINSAALSFTPADSSGTAEGGSGVASPAQADKAEL
notes: MsrB3A delta(1-31), residues 32-192, endoplasmic reticulum signal removed, C-terminal His tag (LEHHHHHH), E. coli BL21(DE3), monomer
As to B1, in series [1] (MsrB1 numbering), the Km stood at 1000 ± 200 µM and the kcat is 0.0283 ± 0.005 s⁻¹.

B2: MsrB3 (Homo sapiens) (protein)
chain: B1 chain with G46H
notes: as for B1
B2: in series [1], the Michaelis-Menten constant (Km) worked out at 800 ± 50 µM and the catalytic constant (kcat) amounted to 0.827 ± 0.07 s⁻¹.

B3: MsrB3 (Homo sapiens; I113E) (protein)
chain: B1 chain with G46H, I82E
notes: as for B1
On to B3, for which, in series [1] (MsrB1 numbering), the Michaelis-Menten constant (Km) was determined as 200 ± 50 µM and the kcat worked out at 0.07 ± 0.0083 s⁻¹.

B4: MsrB3 (Homo sapiens; N160Y) (protein)
chain: B1 chain with G46H, N129Y
notes: as for B1
Turning to B4, in series [1] (MsrB1 numbering), the Km came to 1200 ± 100 µM and the turnover number (kcat) stood at 0.00033 ± 0.00017 s⁻¹.

B5: MsrB1 (Sec-containing MsrB1; Cys form MsrB1-Cys) (Mus musculus) (protein)
chain: MSFCSFFGGEVFQNHFEPGVYVCAKCSYELFSSHSKYAHSSPWPAFTETIHPDSVTKCPEKNRPEALKVSCGKCGNGLGHEFLNDGPKRGQSRFUIFSSSLKFVPKGKEAAASQGH
notes: full length, monomer; Sec forms: natural SECIS element, C-terminal His tag (five His added to own C-terminal His), from NIH 3T3 cells; C-terminally tagged form of similar activity also made
B5: in series [2] (Sec form from NIH 3T3), the Km was 500 ± 100 µM and the kcat worked out at 0.223 ± 0.0383 s⁻¹.

B6: MsrB1 (Sec-containing MsrB1; Cys form MsrB1-Cys) (Mus musculus; U95C) (protein)
chain: B5 chain with U95C
notes: as for B5
For B6, in series [2] (MsrB1-Cys from E. coli), the Km is 1300 ± 200 µM and the turnover number (kcat) turned out to be 0.00183 ± 0.0005 s⁻¹.

B7: MsrB1 (Sec-containing MsrB1; Cys form MsrB1-Cys) (Mus musculus; F97N) (protein)
chain: B5 chain with F97N
notes: as for B5
With B7, in series [2] (Sec form from NIH 3T3), the Km came to 4300 ± 1600 µM and the catalytic constant (kcat) turned out to be 0.01 ± 0.0033 s⁻¹.

B8: MsrB1 (Sec-containing MsrB1; Cys form MsrB1-Cys) (Mus musculus; F97N/G77H/U95C) (protein)
chain: B5 chain with G77H, U95C, F97N
notes: as for B5
In the case of B8, in series [2] (MsrB1-Cys from E. coli), the Michaelis-Menten constant (Km) stood at 13200 ± 2400 µM and the turnover number (kcat) came to 0.023 ± 0.005 s⁻¹.

B9: MsrB1 (Sec-containing MsrB1; Cys form MsrB1-Cys) (Mus musculus; F97N/G77H) (protein)
chain: B5 chain with G77H, F97N
notes: as for B5
As for B9, in series [2] (Sec form from NIH 3T3), the Michaelis constant (Km) was determined as 6400 ± 2100 µM and the kcat turned out to be 0.04 ± 0.0083 s⁻¹.

B10: MsrB1 (Sec-containing MsrB1; Cys form MsrB1-Cys) (Mus musculus; G77H) (protein)
chain: B5 chain with G77H
notes: as for B5
As for B10, in series [2] (Sec form from NIH 3T3), the Michaelis-Menten constant (Km) was 800 ± 50 µM and the kcat is 0.0433 ± 0.013 s⁻¹.
